Source: PMC7256037, “Identification and characterization of mammaglobin-A epitope in heterogenous breast cancers for enhancing tumor-targeting therapy” (Signal Transduction and Targeted Therapy, 2020)

Tests used:
[1] = target: T1, human mammaglobin-A (Mam-A) protein, antigen of the ELISA and SPR (Homo sapiens, UniProt Q13296); assay: ELISA; indirect ELISA of the mAbs on Mam-A
T1 construct: mammaglobin-A, human

Peptide 733-3RE-2 = target: T2, Peptide 733-3RE-2 (Homo sapiens); assay: immunostaining of cells or tissue; pre-blocking test: synthetic peptide pre-incubated with mAb785; binding of the peptide read from the loss of immunostaining of breast cancer sections; settings: both partners purified
T2 construct: residues 42-51 of human mammaglobin-A; also called truncated peptide without PV; source: synthetic peptide
T2 chain: YKELLQEFID

[2] = target: T3, mammaglobin-A (Mam-A) on breast cancer cells and in breast cancer tissue (Homo sapiens, UniProt Q13296); assay: immunostaining of cells or tissue; ZR75.1 cells and tumor slides (GFP in the cytoplasm) fixed with cold methanol/acetone, mAb then AF594-labeled anti-mouse IgG, confocal microscopy; settings: one partner purified
T3 construct: mammaglobin-A, endogenous in human breast cancer cells and tissue; Cells were fixed with cold methanol/acetone before staining; also called membrane-associated Mam-A; source: endogenous, breast cancer cell lines (ZR75.1, MCF-7, SKBR3, MDA-MB-231) and breast cancer tissue sections
T3 sequence (Q13296 19-93): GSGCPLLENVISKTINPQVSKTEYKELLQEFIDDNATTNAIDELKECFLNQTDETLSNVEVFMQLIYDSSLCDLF

T1 sequence (Q13296 19-93): as above

binding result [1]: binds | binding result (Peptide 733-3RE-2): binds | binding result [2]: binds
B1: mAb785 (antibody, V domains shown)
VH: EVKLVESGGGLVKPGGSLKLSCAASGFTLSNHGMSWVRQTSEKRLEWVASISIRGNTYYLDSVEGRFTISRDDARNILYLQMSGLRSEDTAIYYCTYFTSVVWGQGTTLTVSS
VL: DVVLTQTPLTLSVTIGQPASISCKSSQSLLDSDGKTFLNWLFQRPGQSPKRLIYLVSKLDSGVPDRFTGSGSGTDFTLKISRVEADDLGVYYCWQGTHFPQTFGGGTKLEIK
notes: Whole monoclonal antibody raised against human Mam-A; detected with anti-mouse IgG secondary antibodies, so probably a mouse IgG; also called anti-Mam-A mAb785
